Biological target: recombinant human IFNγ (human) (UniProt P01579)
Test: cell-based or functional assay

recombinant human IFNγ (human), sequence (P01579 24-166 limits assumed): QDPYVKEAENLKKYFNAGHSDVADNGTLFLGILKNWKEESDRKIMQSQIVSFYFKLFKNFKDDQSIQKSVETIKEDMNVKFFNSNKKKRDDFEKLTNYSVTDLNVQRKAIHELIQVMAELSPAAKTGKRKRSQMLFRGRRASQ

B1: AC1.2R3P7_D3 scFv (scFv, part only; not given: scFv linker, part only)
scFv, part: EVQLLESGGGLVQPGGSLKLSCAASGFTFSSNAMSWVRQAPGKGLEWVSTLTGSGGTAYYADSVEGRFSISRDNSKNTLYLQMNSLRAEDTAVYYCAKGTELVGGGLDNWGQGTLVTVSSNFMLTQPHSLSESPGKTVTISCTGSGGSIATNYVQWYQQRPGSAPTTVIHEDNQRPSGVPDRFSGSIDGSSNSASLTISGLQPEDEADYYCQSYDSDNHHVVFGGGTKLTVLG
Percentage inhibition of IFNγ-induced reporter gene expression at 0.011 nM scFv: 20% | Percentage inhibition of IFNγ-induced reporter gene expression at 0.043 nM scFv: 28% | Percentage inhibition of IFNγ-induced reporter gene expression at 0.17 nM scFv: 36% | Percentage inhibition of IFNγ-induced reporter gene expression at 0.68 nM scFv: 55% | Percentage inhibition of IFNγ-induced reporter gene expression at 2.7 nM scFv: 69%

Reference: patent publication US20100158922A1
